Measurements taken from US20220409663A1.

Target: transforming growth factor-beta receptor 2 (TGFBR2) (human) (UniProt P37173)
Test: cell-based or functional assay

Chain of UniProt P37173 (P37173 23-567): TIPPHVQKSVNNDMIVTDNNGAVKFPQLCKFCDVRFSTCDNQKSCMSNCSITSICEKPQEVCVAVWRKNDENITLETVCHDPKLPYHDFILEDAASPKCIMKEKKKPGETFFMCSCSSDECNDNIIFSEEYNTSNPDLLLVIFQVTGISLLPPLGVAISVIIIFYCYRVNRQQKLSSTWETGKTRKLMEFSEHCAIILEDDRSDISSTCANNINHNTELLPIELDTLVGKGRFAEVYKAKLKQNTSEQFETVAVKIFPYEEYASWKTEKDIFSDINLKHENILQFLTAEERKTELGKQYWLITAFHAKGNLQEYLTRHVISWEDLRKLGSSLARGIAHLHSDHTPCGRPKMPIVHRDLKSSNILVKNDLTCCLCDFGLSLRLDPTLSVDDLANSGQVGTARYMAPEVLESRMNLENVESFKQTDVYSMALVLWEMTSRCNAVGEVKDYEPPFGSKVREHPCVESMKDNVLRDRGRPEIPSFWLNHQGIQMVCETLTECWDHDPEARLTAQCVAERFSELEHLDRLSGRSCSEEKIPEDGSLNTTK

- fold change in cytokine concentration from TGF-β:vehicle treated cells (pro-inflammatory cytokine secretion, 3 days, TGF-β 10 ng/ml) (fold change (ratio)): < 1
Substance: transforming growth factor-β (TGFβ) (ligand)
